B1: Mating-type protein ALPHA2 (Saccharomyces cerevisiae), P0CY08 (parent)
chain: MNKIPIKDLLNPQITDEFKSSILDINKKLFSICCNLPKLPESVTTEEEVELRDILGFLSRANKNRKISDEEKKLLQTTSQLTTTITVLLKEMRSIENDRSNYQLTQKNKSADGLVFNVVTQDMINKSTKPYRGHRFTKENVRILESWFAKNIENPYLDTKGLENLMKNTSLSRIQIKNWVSNRRRKEKTITIAPELADLLSGEPLAKKKE
partner: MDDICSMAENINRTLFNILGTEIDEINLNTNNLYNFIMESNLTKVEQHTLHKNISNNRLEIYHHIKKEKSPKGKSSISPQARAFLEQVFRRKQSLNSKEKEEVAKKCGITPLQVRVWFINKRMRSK

Variants of: B1
Details: with mata1_yeasx MATA1, P0CY10

effect of a mutation on the interaction | Variant
disrupting interaction strength | I67A;L74A;L81A;L88A
